According to US20260306676A1, “FLUORESCEIN-LABELED NERVE TARGETING PEPTIDE FORMULATIONS AND RELATED METHODS” (ALUME BIOSCIENCES, INC., priority 2023, published 2026):

Assay: pH-moderated solubility (NaOH titration) of ALM-488 salts
Assay type: physicochemical
Method: A titration experiment was carried out using the ALM-488, HCl salt to determine if a nominal 40-50 mg/mL or higher solubility could be retained as pH is increased by gradual addition of NaOH. […] At solution pH values <4 the peptide remained in solution at concentrations >50 mg/mL. Above pH 4, the peptide precipitated. […] Dilution of the mixture due to base addition decreased the peptide concentration to ~47 mg/mL at pH values >7.
FIG. 8 is an overlay of the titration curves for ALM-488 hydrochloride and the ALM-488 acetate.

CC(C)[C@H](NC(=O)[C@H](Cc1ccc(O)cc1)NCCCCC(=O)[C@H](Cc1ccc(O)cc1)NC(=O)[C@@H]1CCCN1C(=O)[C@H](CCC(=O)O)NC(=O)[C@H](CCC(=O)O)NC(=O)[C@H](Cc1c[nH]c2ccccc12)NC(=O)[C@@H]1CCCN1C(=O)[C@@H](NC(=O)[C@H](CCC(N)=O)NC(=O)c1ccc2c(c1)C(=O)OC21c2ccc(O)cc2Oc2cc(O)ccc21)C(C)C)C(=O)N[C@H](C(=O)N[C@@H](CCCCN)C(=O)N[C@@H](CCCCN)C(=O)N[C@@H](CO)C(=O)N[C@@H](CO)C(=O)NCC(=O)NCC(N)=O)C(C)C [ALM-488 acetate]
initial pH of mixture (before NaOH, acetate mixture ~50 mg/mL): ~ 4
amount of NaOH required to adjust pH to ~7 (compared with hydrochloride salt): lower than that for the hydrochloride salt
dissolution / appearance (initial pH ~4, ~50 mg/mL): did not completely dissolve and formed an opaque orange dispersion
appearance (pH >7, NaOH added): clear solution
